Assay results as given in patent US20230322908A1 (AC IMMUNE, published 2023).

What was measured:
[1] = molecular target: T1, recombinant human full-length TDP-43 (TAR DNA-binding protein 43), soluble (human, UniProt Q13148 1-414); assay: SPR, immobilized soluble TDP-43
T1 construct: Used on Luminex beads, coated on ELISA plates, and immobilized or injected in SPR; also called FL TDP-43; TDP-43 protein
Summary of the method: (§1)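 Biacore SPR with soluble (150 RU) or aggregated (110 RU) full-length TDP-43 amine-coupled to CM5, or biotinylated TP-73 peptide captured on SA chip (400 RU). Antibodies injected (optimized: 3-fold series 300 to 1.2 nM, 300 s association, 600 s dissociation); glycine pH 1.7 regeneration; double-referenced, KD from global 1:1 fit.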

[2] = molecular target: T1, recombinant human full-length TDP-43 …; assay: SPR, mAb captured, FL TDP-43 injected; mean
Protocol: Binding affinity to soluble FL TDP-43 was evaluated by determing the dissociation constants (KD) using surface plasmon resonance (SPR; Biacore T200, GE Healthcare Life Sciences). Goat-anti mouse capture antibody was immobilized on a CM5 Series S sensor chip (GE Healthcare Life Sciences) by amine coupling. Antibodies were captured at a concentration of 2-5 µg/ml in PBS-P⁺ (GE Healthcare Life Sciences) with a flow rate of 10 µl/min for 120 seconds resulting in a capture level of 350-1000 RU. […] Dissociation was recorded for 1 h followed by one regeneration with 10 mM glycine-HCl pH 1.7. Results obtained from binding kinetics were double-referenced using a blank flow cell and a buffer cycle and were evaluated with a global 1:1 fitting model with RI.

[3] = molecular target: T2, recombinant human aggregated full-length TDP-43 (human, UniProt Q13148 1-414); assay: SPR, immobilized aggregated TDP-43
T2 construct: also called aggregated TDP-43; aggregated FL TDP-43
Summary of the method: as §1

[4] = molecular target: T1, recombinant human full-length TDP-43 …; assay: indirect ELISA, coated FL TDP-43
Protocol: Antibody binding to human FL TDP-43 was determined using an indirect ELISA. ELISA plate coating with 1 µg/ml human FL TDP-43 was performed overnight in carbonate buffer at 4° C. Plates were washed with 0.05% Tween-20/PBS and then blocked with 1% bovine serum albumin (BSA) in 0.05% Tween-20/PBS for 1 hour at 37° C. Antibodies purified from hybridoma supernatants were then added in a 3-fold serial dilution starting at 1 µg/ml, and incubated for 2 hours at 37° C. after which the plates were washed. An AP-conjugated anti-mouse IgG secondary antibody (Jackson Immunoresearch Laboratories, United Kingdom) was added at 1/1000 dilution in 0.05% Tween-20/PBS for 1 hour at 37° C. After the final wash, plates were incubated with pNPP (Sigma-Aldrich, Switzerland) phosphatase substrate solution, and read at 405 nm using an ELISA plate reader (Tecan, Switzerland).

[5] = molecular target: T1, recombinant human full-length TDP-43 …; assay: SPR, immobilized soluble TDP-43; whole hybridoma antibody, first SPR protocol (90 s contact); soluble TDP-43 on the chip
[6] = molecular target: T3, TP-51 peptide (aa 352-414 of SEQ ID NO:1) (human); assay: SPR, mAb captured, TP-51 injected; mean
T3 construct: Synthetic peptide (Pepscan)
T3 peptide: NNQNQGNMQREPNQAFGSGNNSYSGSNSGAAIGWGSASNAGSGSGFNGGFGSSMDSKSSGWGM

[7] = molecular target: T3, TP-51 peptide (aa 352-414 of SEQ ID …); assay: SPR, mAb captured, TP-51 injected
[8] = molecular target: T1, recombinant human full-length TDP-43 …; assay: Luminex, FL TDP-43 on beads
Protocol: Mice were euthanized and fusion with myeloma cells was performed using splenocytes from four individual mice. Screening for antibodies from the successfully fused hybridoma cell lines were performed as follows. Diluted (1:32) cell culture supernatants were analyzed using Luminex bead-based multiplex assay (Luminex, The Netherlands). Luminex beads were conjugated to FL TDP-43 and with capturing IgGs with anti-mouse IgG-Fc antibodies specific for the IgG1, IgG2a, IgG2b, IgG2c, and IgG3 subclasses (Jackson Immunoresearch, USA). Binding to beads conjugated to FL TDP-43 identified 386 hits derived from mice immunized with the FL TDP-43 liposomal vaccine.
Luminex assays with serial dilution of antibodies were performed as described before to determine half maximal effective concentration (EC50) of binding of antibodies to FL TDP-43. In summary, all tested antibodies bind to full length TDP-43 with high affinity.

B1: ACI-7069-633B12-Ab1 (antibody, mouse IgG2b, V domains shown)
VH: EVQLQQSGPELVKPGASVKISCKTSGFTFTEYSMHWVKQSHGKSLEWIGGINPNNGGTSYNQKFKGKATLTVDKSSSTAYMELRSLTSEDSAVYYCARESWGQGTTLTVSS
VL: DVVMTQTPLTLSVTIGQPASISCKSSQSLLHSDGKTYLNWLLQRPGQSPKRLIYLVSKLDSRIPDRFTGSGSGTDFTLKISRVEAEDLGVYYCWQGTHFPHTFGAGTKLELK
notes: Mouse IgG2b, kappa, from hybridoma; also called 633B12C8
[1]
  koff: 0.000319 s⁻¹
  kon: 873 M⁻¹ s⁻¹
[2]
  Kd: 0.075 nM
  koff: 3.45e-06 s⁻¹
  kon: 43900 M⁻¹ s⁻¹
[3]
  Kd: 0.62 nM
  koff: 5.01e-05 s⁻¹
  kon: 82100 M⁻¹ s⁻¹
[4]
  EC50: 0.032 µg/mL
[5]
  Kd: 365 nM
[6]
  Kd: 1.25 nM
  koff: 0.000138 s⁻¹
  kon: 110000 M⁻¹ s⁻¹
[7]
  Kd: 1.18 to 1.32 nM
[8]
  EC50: < 0.01 nM
